Biological target: T1, PEBP1 (UniProt P70296 1-187)
T1 sequence (looked up): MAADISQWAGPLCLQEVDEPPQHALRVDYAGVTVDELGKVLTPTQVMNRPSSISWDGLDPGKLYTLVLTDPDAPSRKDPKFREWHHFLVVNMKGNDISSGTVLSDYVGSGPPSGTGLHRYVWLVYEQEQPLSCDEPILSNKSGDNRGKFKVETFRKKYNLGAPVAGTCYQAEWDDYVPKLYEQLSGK
Assay: ITC

- dH: -1380 kJ/mol
- stoichiometry N: 0.753 ± 0.0359
B1: dendritic cell factor 1 (DCF1) (natural protein)
chain: EAFDSVLGDTASCHRACQLTYPLHTYPKEEELYACQRGCRLFSICQFVDDGLDLNRTKLECESACTEAYSQPDEQYACHLGCQDQLPFAELRQEQLMSLMPRMHLLFPLTLVRSFWSDMMDSAQSFITSSWTFYLQADDGKIVIFQSKPEIQYAPQLEQEPTNLRESSLSKMSYLQMRNSQAHRNYLEEEESDGFLRCLSLNSGWILTTTLVLSVMVLLWICCAAVATAVEQYVPPEKLSIYGDLEFMNEQKLSRYPAPSLVIVRSQTEEHEEAGPLPTKVNLAHSEI

— publication doi:10.1101/2020.02.20.958934 (bioRxiv, 2020)
